# How the values were obtained:
# [1] = molecular target: the molecule itself; experiment: SEC; […], pH 8.0, 25°C; […]
# [2] = molecular target: the molecule itself; experiment: SDS-PAGE of unboiled and boiled samples; 10 µg Eis in 1% SDS, 0.125 M Tris pH 6.8, boiled or unboiled; 10% acrylamide gel, 0.1% SDS in Tris/Glycine pH 8.0; Coomassie stain
protein,measurement,setting,value
"Eis protein (Rv2416c) of M. tuberculosis (enzyme, also called aminoglycoside acetyltransferase Eis; recombinant Eis protein) MTVTLCSPTEDDWPGMFLLAAASFTDFIGPESATAWRTLVPTDGAVVVRDGAGPGSEVVGMALYMDLRLTVPGEVVLPTAGLSFVAVAPTHRRRGLLRAMCAELHRRIADSGYPVAALHASEGGIYGRFGYGPATTLHELTVDRRFARFHADAPGGGLGGSSVRLVRPTEHRGEFEAIYERWRQQVPGGLLRPQVLWDELLAECKAAPGGDRESFALLHPDGYALYRVDRTDLKLARVSELRAVTADAHCALWRALIGLDSMERISIITHPQDPLPHLLTDTRLARTTWRQDGLWLRIMNVPAALEARGYAHEVGEFSTVLEVSDGGRFALKIGDGRARCTPTDAAAEIEMDRDVLGSLYLGAHRASTLAAANRLRTKDSQLLRRLDAAFASDVPVQTAFEF",stoichiometry N,[1],6
same,stoichiometry N,[2],3

# From publication PMC3217979, “Thermostable Hexameric Form of Eis (Rv2416c) Protein of M. tuberculosis Plays an Important Role for Enhanced Intracellular Survival within Macrophages” (PLoS ONE, 2011)
